Measurements from PMC3567243 (Molecular Microbiology, 2012).

Tested on: CC1=CC(=O)c2ccccc2C1=O
Test: purified protein

**Q.** With (Mycobacterium tuberculosis H37Rv) as the substance, how does the Km read?
**A.** Its Km is 17.29 ± 11.63 µM.

**Q.** What about the kcat/Km of the same substance?
**A.** The kcat/Km was 94500 M⁻¹ s⁻¹.
